Where two headings read alike, the source gives them in different places.

Test [1] addresses FCGR3A (176Phe/F158) (CD16a) (UniProt P08637).
Test [2] deals with FCGR3A (176Val/V158) (CD16a) (UniProt P08637).
Test [3] has as its target FCGR1 (CD64) (UniProt P12314).
Test [4] deals with FcRn (UniProt P55899).
Test [5] concerns the target FCGR2A (167H) (CD32a) (UniProt P12318).
The target of test [6] is FCGR2A (167R) (CD32a) (UniProt P12318).
Test [7] deals with FCGR3A (176Val/V158) (CD16a) (UniProt P08637). The source holds these as a separate data set.
The target of test [8] is FCGR2A (167R) (CD32a) (UniProt P12318). The source holds these as a separate data set.
For test [9], the target named is FCGR3A (176Phe/F158) (CD16a) (UniProt P08637). The source holds these as a separate data set.
In test [10] the target is FCGR1 (CD64) (UniProt P12314). This is another data set of the same source.
Test [11] has as its target FcRn (UniProt P55899). This is another data set of the same source.
Test [12] addresses FCGR2A (167H) (CD32a) (UniProt P12318). This is another data set of the same source.

Chain of UniProt P55899 (P55899 24-297): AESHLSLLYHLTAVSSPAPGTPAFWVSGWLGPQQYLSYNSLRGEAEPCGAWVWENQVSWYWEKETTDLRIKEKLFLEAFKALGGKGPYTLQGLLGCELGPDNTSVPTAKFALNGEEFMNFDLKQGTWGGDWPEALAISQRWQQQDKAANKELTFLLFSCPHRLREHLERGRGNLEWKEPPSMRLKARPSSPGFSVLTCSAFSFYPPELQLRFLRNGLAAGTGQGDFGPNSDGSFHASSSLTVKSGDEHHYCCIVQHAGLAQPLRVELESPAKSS
Chain of UniProt P12314 (P12314 16-292): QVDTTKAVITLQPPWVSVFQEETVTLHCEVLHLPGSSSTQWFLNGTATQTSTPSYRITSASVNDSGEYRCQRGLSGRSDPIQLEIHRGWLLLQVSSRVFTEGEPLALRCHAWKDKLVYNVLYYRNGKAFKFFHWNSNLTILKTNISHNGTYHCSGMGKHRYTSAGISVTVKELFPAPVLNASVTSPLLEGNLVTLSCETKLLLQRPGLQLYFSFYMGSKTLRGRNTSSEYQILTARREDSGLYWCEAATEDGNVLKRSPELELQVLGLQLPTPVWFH

“KVA12.1 (WT, hIgG1) (from UniProt P01857)”: the IC50 in test [1] stood at 53.3 nM; in test [2], 95.1 nM; in the test with FCGR1 (CD64) [3], 1.59 nM; in the test with FcRn [4], 5.2 nM; in the test with FCGR2A (167H) (CD32a) [5] it was 29.1 nM; in the test with FCGR2A (167R) (CD32a) [6] it was 67.3 nM.
For the substance “KVA12123 (YTE, hIgG1) (from UniProt P01857)”, the IC50 was 505 nM in [7]; 286 nM with FCGR2A (167R) (CD32a) [8]; 385 nM in [9]; 6 nM in the test with FCGR1 (CD64) [10]; 0.97 nM in the test with FcRn [11]; 137 nM in the test with FCGR2A (167H) (CD32a) [12].

Usually IC50 stands for the midpoint of a concentration-inhibition curve.

The values above are taken from publication PMC10751915.
